Data set [1] concerns the target T1, Mre11;Rad50NBD (Pyrococcus furiosus;Pyrococcus furiosus, UniProt Q8U1N9;P58301;P58301 1-426;1-195;709-882, |). The data set can be described thus: NMR PRE.
For data set [2], the target named is T1, Mre11;Rad50NBD. The data set can be described thus: NMR CSP titration.
Data set [3] has as its target T1, Mre11;Rad50NBD. The data set can be described thus: NMR CSP.
The next data set concerns the target Mre11;Rad50 S115E/S116E (Pyrococcus furiosus;Pyrococcus furiosus, UniProt Q8U1N9;P58301 1-426;1-882, |S115E;S116E). The data set can be described thus: fluorescence polarization.
Another data set deals with Mre11;Rad50 R833E/R834E (Pyrococcus furiosus;Pyrococcus furiosus, UniProt Q8U1N9;P58301 1-426;1-882, |R833E;R834E). Description: fluorescence polarization. A general note: In fluorescence polarisation assays a small probe gives low polarisation when free and higher when bound to something large.
Data set [4] has as its target Mre11 K144E;Rad50 full-length (Pyrococcus furiosus;Pyrococcus furiosus, UniProt Q8U1N9;P58301 1-426;1-882, K144E|). The data set can be described thus: fluorescence polarization.
In data set [5] the target is Mre11 K111E;Rad50 full-length (Pyrococcus furiosus;Pyrococcus furiosus, UniProt Q8U1N9;P58301 1-426;1-882, K111E|). The data set can be described thus: fluorescence polarization.
In data set [6] the target is Mre11 K365E;Rad50 full-length (Pyrococcus furiosus;Pyrococcus furiosus, UniProt Q8U1N9;P58301 1-426;1-882, K365E|). The data set can be described thus: fluorescence polarization.
In another data set the target is Mre11;Rad50 R868E (Pyrococcus furiosus;Pyrococcus furiosus, UniProt Q8U1N9;P58301 1-426;1-882, |R868E). The data set can be described thus: fluorescence polarization.
The target of the next data set is Mre11;Rad50 full-length (Pyrococcus furiosus;Pyrococcus furiosus, UniProt Q8U1N9;P58301 1-426;1-882, |). Description: fluorescence polarization.
Data set [7] deals with Mre11 R160E;Rad50 full-length (Pyrococcus furiosus;Pyrococcus furiosus, UniProt Q8U1N9;P58301 1-426;1-882, R160E|). Description: fluorescence polarization.
Another data set concerns the target Mre11;Rad50 K172E (Pyrococcus furiosus;Pyrococcus furiosus, UniProt Q8U1N9;P58301 1-426;1-882, |K172E). Description: fluorescence polarization.

The record followed here is publication PMC11965522.

Broadly, the Kd is the concentration at which binding is half-saturated. High values mean lower affinity, low ones higher affinity.

T1 sequence (P58301 1-195, chain 1 of 2): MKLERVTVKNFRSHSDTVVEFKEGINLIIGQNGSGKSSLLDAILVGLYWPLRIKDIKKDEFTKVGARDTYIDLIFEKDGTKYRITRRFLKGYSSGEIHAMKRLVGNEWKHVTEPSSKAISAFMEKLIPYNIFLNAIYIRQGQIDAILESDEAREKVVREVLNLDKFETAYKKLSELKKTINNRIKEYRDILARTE
T1 sequence (P58301 709-882, chain 2 of 2): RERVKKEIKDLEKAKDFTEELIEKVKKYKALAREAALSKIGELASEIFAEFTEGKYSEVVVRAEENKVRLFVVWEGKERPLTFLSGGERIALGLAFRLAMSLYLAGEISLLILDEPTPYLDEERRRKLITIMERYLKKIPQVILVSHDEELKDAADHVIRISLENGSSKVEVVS
Chain of Mre11;Rad50 R868E (P58301 whole entry R868E, one chain of several): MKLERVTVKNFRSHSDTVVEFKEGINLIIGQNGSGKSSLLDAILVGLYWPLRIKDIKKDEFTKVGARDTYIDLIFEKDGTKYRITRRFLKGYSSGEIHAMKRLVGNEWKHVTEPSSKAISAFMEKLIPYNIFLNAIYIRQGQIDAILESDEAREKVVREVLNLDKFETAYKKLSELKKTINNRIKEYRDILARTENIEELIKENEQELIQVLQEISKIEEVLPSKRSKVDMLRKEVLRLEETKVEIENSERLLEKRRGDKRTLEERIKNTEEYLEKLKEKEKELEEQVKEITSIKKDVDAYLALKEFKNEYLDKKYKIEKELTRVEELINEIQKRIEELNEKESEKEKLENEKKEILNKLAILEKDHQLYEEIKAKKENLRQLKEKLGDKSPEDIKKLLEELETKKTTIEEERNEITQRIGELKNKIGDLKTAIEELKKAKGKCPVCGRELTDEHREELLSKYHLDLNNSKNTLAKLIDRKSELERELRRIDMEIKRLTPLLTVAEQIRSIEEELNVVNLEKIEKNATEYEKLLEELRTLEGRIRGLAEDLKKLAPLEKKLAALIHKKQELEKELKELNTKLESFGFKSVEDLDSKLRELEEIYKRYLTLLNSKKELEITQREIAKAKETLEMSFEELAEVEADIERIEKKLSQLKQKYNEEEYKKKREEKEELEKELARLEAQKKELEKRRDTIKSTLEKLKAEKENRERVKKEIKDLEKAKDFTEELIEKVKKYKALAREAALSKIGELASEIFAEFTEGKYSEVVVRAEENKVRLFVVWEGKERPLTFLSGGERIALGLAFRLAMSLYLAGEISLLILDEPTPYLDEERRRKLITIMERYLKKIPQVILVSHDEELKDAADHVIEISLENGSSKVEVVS
Chain of Mre11;Rad50 K172E (P58301 whole entry K172E, one chain of several): as the sequence (P58301 whole entry R868E, one chain of several) above, with K172E, E868R counted along it
Chain of Mre11 R160E;Rad50 full-length (P58301 whole entry, stated change not applied, one chain of several): as the sequence (P58301 whole entry R868E, one chain of several) above, with E868R counted along it
Chain of Mre11 K144E;Rad50 full-length (P58301 whole entry, stated change not applied, one chain of several): as the sequence (P58301 whole entry R868E, one chain of several) above, with E868R counted along it
Chain of Mre11;Rad50 full-length (P58301 whole entry, one chain of several): as the sequence (P58301 whole entry R868E, one chain of several) above, with E868R counted along it
Chain of Mre11 K111E;Rad50 full-length (P58301 whole entry, stated change not applied, one chain of several): as the sequence (P58301 whole entry R868E, one chain of several) above, with E868R counted along it
Chain of Mre11 K365E;Rad50 full-length (P58301 whole entry K365E, one chain of several): as the sequence (P58301 whole entry R868E, one chain of several) above, with K365E, E868R counted along it
Chain of Mre11;Rad50 S115E/S116E (P58301 whole entry S115E/S116E, one chain of several): as the sequence (P58301 whole entry R868E, one chain of several) above, with S115E, S116E, E868R counted along it
Chain of Mre11;Rad50 R833E/R834E (P58301 whole entry R833E/R834E, one chain of several): as the sequence (P58301 whole entry R868E, one chain of several) above, with R833E, R834E, E868R counted along it

Take CACGCACGTAGAAGCTTTTGCTTCTACGTGCGTGAC (structured_DNA, phosphorothioate at nt 2) [hairpin 2S]: the binding result with Mre11;Rad50NBD [1] is listed as “binds”.

Take CACGCACGTAGAAGCTTTTGCTTCTACGTGCGTGAC (structured_DNA, phosphorothioate at nt 17) [hairpin 17S]: the binding result with Mre11;Rad50NBD [1] is on record as “binds”.

As for CACGCACGTAGAAGCTTTTGCTTCTACGTGCGTGAC (structured_DNA, phosphorothioate at nt 36) [hairpin 36S], the binding result with Mre11;Rad50NBD [1] is listed as “binds”.

As to CACGCACGTAGAAGCTTTTGCTTCTACGTGCGTGAC (structured_DNA, phosphorothioate at nt 24) [hairpin 24S], the binding result in the data set with Mre11;Rad50NBD [1] was “binds”.

For CACGCACGTAGAAGCTTTTGCTTCTACGTGCGTGAC (structured_DNA, phosphorothioate at nt 6) [hairpin 6S], in the data set with Mre11;Rad50NBD [1], the binding result is given as “binds”.

Regarding CACGCACGTAGAAGCTTTTGCTTCTACGTGCGTGAC (structured_DNA, phosphorothioate at nt 30) [hairpin 30S], the binding result with Mre11;Rad50NBD [1] is “binds”.

On to CACGCACGTAGAAGCTTTTGCTTCTACGTGCGTGAC (structured_DNA) [15-bp hairpin DNA], for which, in the data set with Mre11;Rad50NBD [2], the Kd was ~5400 nM.

B1: 50-bp dsDNA (dsDNA)
DNA 1: CTGCAGGGTTTTTGTTCCAGTCTGTAGCACTGTGTAAGACAGGCCAGATG
DNA 2: CATCTGGCCTGTCTTACACAGTGCTACAGACTGGAACAAAAACCCTGCAG
As for B1, in the data set with Mre11;Rad50NBD [3], the binding result is “binds”.

B2: 40-mer dsDNA (dsDNA)
DNA 1: GTGTTCGGACTCTGCCTCAAGACGGTAGTCAACGTGCTTG
DNA 2: CAAGCACGTTGACTACCGTCTTGAGGCAGAGTCCGAACAC
B2: the Kd with Mre11;Rad50 S115E/S116E came to 580 ± 60 nM; in the data set with Mre11;Rad50 R833E/R834E it was 1080 ± 130 nM; in data set [4] it was 2120 ± 420 nM; in data set [5], 1070 ± 110 nM; in data set [6], 710 ± 50 nM; with Mre11;Rad50 R868E it was 750 ± 70 nM. The figures for the Kd (in the data set with Mre11;Rad50 full-length; in data set [7]; with Mre11;Rad50 K172E) were 590 ± 50 nM, 960 ± 60 nM and 580 ± 30 nM, respectively.
